Reference: PMC7423924, “A fluorogenic cyclic peptide for imaging and quantification of drug-induced apoptosis” (Nature Communications, 2020)
“And” between values parts separate entries of the source, which are not always exact repeats. Equal values may be shown once.

Tested on: primary airway epithelial cells
Assay: Flow cytometry staining before and after induction of apoptosis, epithelial
Format: cell-based, human
Conditions: single replicates, listed as Ann V
Method: Fig. 2 Apo-15 binds to apoptotic cells of different origin in multiple environments. a Representative fluorescence confocal microscopy images (from three independent experiments) human apoptotic (yellow arrows) and viable (white arrows) cells from different lineages: BL-2 (lymphoid), neutrophils (myeloid), and primary airway epithelial cells (epithelial). Cells were incubated with Apo-15 (100 nM, green), AF647-Annexin V (5 nM, red), and Hoechst 33342 (7 μM, blue) for 10 min and imaged under a fluorescence confocal microscope (λexc.: 405, 488, 633 nm: λem.: 450, 525, 670 nm). Scale bars: 10 µm. b Divalent cation-independent binding of Apo-15 to apoptotic cells of different origin (top plots: lymphoid cells, bottom plots: myeloid cells). Mixtures of apoptotic (highlighted in green dots) and viable cells (highlighted in black dots) were stained with AF647-Annexin V (25 nM) and Apo-15 (100 nM) in the presence of 2 mM CaCl2 (left) or 2.5 mM EDTA (right). Representative histograms showing Apo-15 binding (x-axis) vs AF647-Annexin V binding (y-axis) acquired on 5L LSR flow cytometer (n = 5). c Cells were sorted on their Apo-15 positivity (green populations in panel b) or negativity (black populations in panel b). Gating strategy in Supplementary Fig. 7. Morphological analysis (four independent images from two independent experiments) of cytocentrifuge preparations of Apo-15-positive and Apo-15-negative cells under brightfield microscopy (scale bar: 10 µm). d Quantification of fluorescence staining of neutrophils (myeloid, n ≥ 5), BL-2 cells (lymphoid, n ≥ 3) and primary airway epithelial cells (epithelial, n = 5) before and after induction of apoptosis and upon treatment with Apo-15 and AF647-Annexin V. Data acquired on 5 L LSR flow cytometer and presented as mean values ± SEM. P values obtained from two-tailed t tests. Source data (in d) are provided as a Source data file. […]
All apopeptides were reconstituted at 5 mM in DMSO. […] Fluorescence emission was measured on a 5 L LSR flow cytometer (BD). […]

B1: Annexin V: fluorescently-labeled (AF647) annexin V, PS-binding protein (protein, UniProt P08758 2-320, looked up)
Annexin A5: AQVLRGTVTDFPGFDERADAETLRKAMKGLGTDEESILTLLTSRSNAQRQEISAAFKTLFGRDLLDDLKSELTGKFEKLIVALMKPSRLYDAYELKHALKGAGTNEKVLTEIIASRTPEELRAIKQVYEEEYGSSLEDDVVGDTSGYYQRMLVVLLQANRDPDAGIDEAQVEQDAQALFQAGELKWGTDEEKFITIFGTRSVSHLRKVFDKYMTISGFQIEETIDRETSGNLEQLLLAVVKSIRSIPAYLAETLYYAMKGAGTDDHTLIRVMVSRSEIDLFNIRKEFRKNFATSLYSMIKGDTSGDYKKALLLLCGEDD
modifications: AF647 label
Stained cells (flow cytometry) (epithelial cells untreated (UNT)): 7.0% and 6.2% and 7.1% and 5.9% and 13.0% | Stained cells (flow cytometry) (epithelial cells, staurosporine (ST, 1 µM 6 h)): 14.1% and 17.9% and 25.5% and 29.1% and 22.0% | Stained cells (flow cytometry) (epithelial cells, staurosporine, EDTA): 0.024% and 0.1% and 0.37% and 3.0% and 2.0%
